Results as given in patent US20040005648A1, “PYK2 related products and methods” (Sugen, Inc., priority 1994, published 2004).

B1: EGF: growth factor stimulus (protein, UniProt P01133 23-1207, looked up)
Pro-epidermal growth factor: PQHWSCPEGTLAGNGNSTCVGPAPFLIFSHGNSIFRIDTEGTNYEQLVVDAGVSVIMDFHYNEKRIYWVDLERQLLQRVFLNGSRQERVCNIEKNVSGMAINWINEEVIWSNQQEGIITVTDMKGNNSHILLSALKYPANVAVDPVERFIFWSSEVAGSLYRADLDGVGVKALLETSEKITAVSLDVLDKRLFWIQYNREGSNSLICSCDYDGGSVHISKHPTQHNLFAMSLFGDRIFYSTWKMKTIWIANKHTGKDMVRINLHSSFVPLGELKVVHPLAQPKAEDDTWEPEQKLCKLRKGNCSSTVCGQDLQSHLCMCAEGYALSRDRKYCEDVNECAFWNHGCTLGCKNTPGSYYCTCPVGFVLLPDGKRCHQLVSCPRNVSECSHDCVLTSEGPLCFCPEGSVLERDGKTCSGCSSPDNGGCSQLCVPLSPVSWECDCFPGYDLQLDEKSCAASGPQPFLLFANSQDIRHMHFDGTDYGTLLSQQMGMVYALDHDPVENKIYFAHTALKWIERANMDGSQRERLIEEGVDVPEGLAVDWIGRRFYWTDRGKSLIGRSDLNGKRSKIITKENISQPRGIAVHPMAKRLFWTDTGINPRIESSSLQGLGRLVIASSDLIWPSGITIDFLTDKLYWCDAKQSVIEMANLDGSKRRRLTQNDVGHPFAVAVFEDYVWFSDWAMPSVMRVNKRTGKDRVRLQGSMLKPSSLVVVHPLAKPGADPCLYQNGGCEHICKKRLGTAWCSCREGFMKASDGKTCLALDGHQLLAGGEVDLKNQVTPLDILSKTRVSEDNITESQHMLVAEIMVSDQDDCAPVGCSMYARCISEGEDATCQCLKGFAGDGKLCSDIDECEMGVPVCPPASSKCINTEGGYVCRCSEGYQGDGIHCLDIDECQLGEHSCGENASCTNTEGGYTCMCAGRLSEPGLICPDSTPPPHLREDDHHYSVRNSDSECPLSHDGYCLHDGVCMYIEALDKYACNCVVGYIGERCQYRDLKWWELRHAGHGQQQKVIVVAVCVVVLVMLLLLSLWGAHYYRTQKLLSKNPKNPYEESSRDVRSRRPADTEDGMSSCPQPWFVVIKEHQDLKNGGQPVAGEDGQAADGSMQPTSWRQEPQLCGMGTEQGCWIPVSSDKGSCPQVMERSFHMPSYGTQTLEGGVEKPHSLLSANPLWQQRALDPPHQMELTQ
modifications: Pro-epidermal growth factor
notes: growth factor stimulus
B2: NGF: growth factor stimulus of PC12 cells (protein, UniProt P25427 122-241, looked up)
Beta-nerve growth factor: SSTHPVFHMGEFSVCDSVSVWVGDKTTATDIKGKEVTVLGEVNINNSVFKQYFFETKCRAPNPVESGCRGIDSKHWNSYCTTTHTFVKALTTDDKQAAWRFIRIDTACVCVLSRKAARRG
modifications: Beta-nerve growth factor
notes: growth factor stimulus of PC12 cells

Legend:
[1] = system: PYK-2; test: Tyrosine phosphorylation of PYK-2 in NIH3T3 cell lines that overexpress PYK-2; type: cell-based, mouse; settings: NIH3T3 cells overexpressing PYK-2 / PYK-2-HA; TPA 6 μM, 15 min at 37° C.
Protocol: Stable cell lines of NIH3T3 that overexpress PYK2 were established by contransfection of PYK2 subcloned into pLSV together with pSV2neo utilizing lipofectamine reagent (GIBCO BRL). Following transfection the cells were grown in Dulbecco's modified Eagle's medium containing 10% fetal bovine serum and 1 mg/ml G418. Transient transfections into 293 cells were performed by using the calcium phosphate technique (*).
The PYK-2 cDNA cloned in PLSV was cotransfected with pSV2neo into PC12 cells and NIH3T3 in order to establish stable cell lines. G418 resistant colonies were screened by immunoprecipitating and immunoblotting.
NIH3T3 cell lines were established that overexpress the PYK-2 and the PYK-2-HA protein. […] The level of phosphorylation is not so high.

[2] = system: Shc; test: Tyrosine phosphorylation of Shc in stimulated PC12 cells (anti-Shc immunoprecipitation, anti-phosphotyrosine immunoblot); type: cell-based, rat
Protocol: Tyrosine phosphorylation of Shc in response to bradykinin, carbachol, PMA and other stimuli was also measured. Quiescent PC12 cells were stimulated for 5 min at 37° C. with bradykinin (1AM), carbachol (1 mM), KC1 (75 mM), PMA (1.6pM), NGF (100 ng/ml), or left unstimulated (−). The cells were also stimulated with carbachol (1 mM) or potassium chloride (75 mM) in the presence of 3 mM EGTA. Stimulations with DMPP (100 μM) or muscarine (1 mM) were preformed under the same conditions. […] The Shc proteins were immunoprecipitated with anti-Shc antibodies, the immunoprecipitates were resolved by SDS-PAGE (8%1, transferred to nitrocellulose and immunoblotted with anti-phosphotyrosine antibodies.

Row | Molecule | tyrosine phosphorylation of PYK-2 in response to the agent [1] | duration of stimulation of Shc phosphorylation after addition [2] | tyrosine phosphorylation of Shc in response to the agent [2]
1 | B1 | undergoes tyrosine phosphorylation | – | –
2 | B2 | – | five | induced persistent stimulation of Shc phosphorylation
